In publication PMC9044917 (Nature structural & molecular biology, 2022):

B1: IMPDH1(514) (enzyme)
chain: not shown
B2: IMPDH1(514)-H372P (enzyme)
chain: not shown
B3: IMPDH1(514)-N198K (enzyme)
chain: not shown
B4: IMPDH1(514)-K238E (enzyme)
chain: not shown
B5: IMPDH1(514)-V268I (enzyme)
chain: not shown
B6: IMPDH1(514)-D226N (enzyme)
chain: not shown
B7: IMPDH1(514)-T116M (enzyme)
chain: not shown
B8: IMPDH1(514)-R105W (enzyme)
chain: not shown
B9: IMPDH1(514)-R224P (enzyme)
chain: not shown
B10: IMPDH1(514)-R231P (enzyme)
chain: not shown

Target: the molecule itself
Assay: negative stain EM

Binding result, binds:
B1

Target: the molecule itself
Assay: negative stain EM
Remark: another data set of the same source

Binding result, binds:
B2
B3
B4
B5
B6
B7
B8
B9
B10
